Measured values as given in publication PMC11314421.

B1: Q3 (biotinylated, SPR) (structured_RNA)
RNA: CUCAAGCGGUGCUUGAAGGGGAGGGAAAGCGGGAAAGCGGGCAACCACUUUUCCCUAGC
B2: Q2 (biotinylated, SPR) (structured_RNA)
RNA: UUUUUCCUGGAAUUUGGAGGGAUGGGAGGAGGGGGUGGGGCUUACUUGUUGUAGCUU

Molecular target: ΔNCL (DelNucleolin) (UniProt P19338 284-710, del1-283)
Test: SPR

ΔNCL (DelNucleolin), sequence (P19338 284-710, stated change not applied): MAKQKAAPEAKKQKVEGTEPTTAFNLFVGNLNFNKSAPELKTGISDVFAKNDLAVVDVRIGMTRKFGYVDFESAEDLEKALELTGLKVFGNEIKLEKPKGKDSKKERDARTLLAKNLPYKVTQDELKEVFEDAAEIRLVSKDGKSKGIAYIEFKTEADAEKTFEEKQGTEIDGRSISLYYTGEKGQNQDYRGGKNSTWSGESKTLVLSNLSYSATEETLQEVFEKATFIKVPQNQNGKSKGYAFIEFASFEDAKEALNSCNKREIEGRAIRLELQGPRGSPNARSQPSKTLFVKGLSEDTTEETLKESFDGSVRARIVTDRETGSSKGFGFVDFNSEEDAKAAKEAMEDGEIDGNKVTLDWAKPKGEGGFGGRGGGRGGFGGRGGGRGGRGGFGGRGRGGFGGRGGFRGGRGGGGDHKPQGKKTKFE

Row | Binder | Kd [nM]
1 | B1 | 15
2 | B2 | 4
